According to patent US20230250176A1 (DRAGONFLY THERAPEUTICS, published 2023):
Residue numbers refer to the chain shown, from its start. Read-outs that look alike come from different tables or passages of the source.

Key:
[1] = biological target: T1, human EGFR (wild type) on cells (human, UniProt P00533 25-1210); experiment: flow cytometry, MDA-MB-453 cells
T1 construct: whole, on cells; also called EGFRwt

[2] = biological target: T2, human EGFR T790M, L858R on NCI-H1975 cells (human, UniProt P00533 25-1210); experiment: cell-based or functional assay
[3] = biological target: T1, human EGFR (wild type) on cells; experiment: cell-based or functional assay
[4] = biological target: human EGFR L747-E749del, A750P on HCC4006 cells (human, UniProt P00533 25-1210); experiment: cell-based or functional assay
cynomolgus monkey FcRn = cynomolgus monkey FcRn (cynomolgus monkey, UniProt Q8SPV9 24-297; Q8SPW0 21-119, limits assumed); experiment: SPR, pH 6.0; pH 6.0
[5] = biological target: T3, cynomolgus monkey NKG2D on NK cells (cynomolgus monkey, UniProt P61252 1-216); experiment: cell-based or functional assay
T3 sequence (looked up): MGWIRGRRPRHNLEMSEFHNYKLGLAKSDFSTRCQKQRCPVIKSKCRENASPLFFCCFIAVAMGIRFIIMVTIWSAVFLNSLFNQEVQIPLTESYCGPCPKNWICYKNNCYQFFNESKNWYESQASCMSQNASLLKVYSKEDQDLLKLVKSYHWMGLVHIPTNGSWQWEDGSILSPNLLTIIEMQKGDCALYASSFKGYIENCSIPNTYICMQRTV

[6] = biological target: T2, human EGFR T790M, L858R on NCI-H1975 …; experiment: cell-based or functional assay; remark: listed apart in the source
[7] = biological target: T1, human EGFR (wild type) on cells; experiment: cell-based or functional assay; remark: listed apart in the source
human NKG2D on cells = biological target: T4, human NKG2D on cells (human, UniProt P26718 1-216); experiment: cell-based or functional assay
T4 sequence (looked up): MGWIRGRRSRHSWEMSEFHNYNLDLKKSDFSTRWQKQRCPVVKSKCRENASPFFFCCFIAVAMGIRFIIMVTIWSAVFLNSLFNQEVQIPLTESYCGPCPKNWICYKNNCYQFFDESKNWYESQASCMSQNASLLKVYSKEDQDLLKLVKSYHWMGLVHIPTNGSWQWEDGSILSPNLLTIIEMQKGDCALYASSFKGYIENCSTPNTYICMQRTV

[8] = biological target: T1, human EGFR (wild type) on cells; experiment: flow cytometry, 786-O cells
[9] = biological target: T1, human EGFR (wild type) on cells; experiment: flow cytometry, KYSE-30 cells
[10] = biological target: T1, human EGFR (wild type) on cells; experiment: flow cytometry, Detroit 562 cells
[11] = biological target: T5, purified recombinant human EGFR (human, UniProt P00533 25-645); experiment: SPR (Biacore 8K), 37 C
T5 construct: the whole entry is named; also called recombinant human epidermal growth factor receptor

[12] = biological target: purified recombinant cynomolgus monkey EGFR (cynomolgus monkey, UniProt A0A2K5WK39 25-645); experiment: SPR (Biacore 8K), 37 C
[13] = biological target: T5, purified recombinant human EGFR; experiment: SPR (Biacore 8K), 37 C; remark: listed apart in the source
[14] = biological target: purified recombinant mouse EGFR (mouse, UniProt Q01279 25-647, limits assumed); experiment: SPR (Biacore 8K), 37 C
[15] = biological target: T6, purified recombinant human FcRn (human, UniProt P55899 24-297; P61769 21-119); experiment: SPR (Biacore 8K), 25 C, pH 6.0; pH 6.0
T6 construct: also called neonatal Fc receptor

recombinant mouse NKG2D = biological target: T7, recombinant mouse NKG2D (mouse, UniProt O54709 94-232, limits assumed); experiment: SPR
T7 sequence (looked up): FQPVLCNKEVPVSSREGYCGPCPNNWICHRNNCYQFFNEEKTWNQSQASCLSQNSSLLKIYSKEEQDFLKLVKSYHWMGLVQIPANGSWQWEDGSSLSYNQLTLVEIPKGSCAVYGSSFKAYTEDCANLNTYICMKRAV

[16] = biological target: T8, recombinant cynomolgus monkey NKG2D (cynomolgus monkey, UniProt P61252 78-216, limits assumed); experiment: SPR
T8 sequence (looked up): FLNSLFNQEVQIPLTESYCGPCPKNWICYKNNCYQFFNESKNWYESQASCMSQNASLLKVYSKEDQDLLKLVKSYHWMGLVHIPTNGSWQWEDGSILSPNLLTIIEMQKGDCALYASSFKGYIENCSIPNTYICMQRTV

[17] = biological target: T9, purified recombinant human NKG2D (human, UniProt P26718 78-216, limits assumed); experiment: SPR
T9 sequence (looked up): T8 sequence (looked up) with N38D, I128T

recombinant rat NKG2D = biological target: T10, recombinant rat NKG2D (rat, UniProt O70215 75-215, limits assumed); experiment: SPR
T10 sequence (looked up): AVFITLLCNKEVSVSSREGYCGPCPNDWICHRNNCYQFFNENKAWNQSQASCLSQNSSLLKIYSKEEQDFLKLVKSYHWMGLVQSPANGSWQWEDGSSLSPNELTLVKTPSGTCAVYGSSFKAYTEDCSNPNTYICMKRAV

B1: EGFR-TriNKET (bispecific antibody, human IgG1, kappa)
chain: DIQMTQSPSSLSASVGDRVTITCQASQDISNYLNWYQQKPGKAPKLLIYDASNLETGVPSRFSGSGSGTDFTFTISSLQPEDIATYYCQHFRHLPLAFGCGTKVEIKGGGGSGGGGSGGGGSGGGGSQVQLQESGPGLVKPSETLSLTCTVSGGSVSSGDYYWTWIRQSPGKCLEWIGHIYYSGNTNYNPRLKSRLTISIDTSKTQFSLKLSSVTAADTAIYYCVRDRVTGAFDIWGQGTMVTVSSGSDKTHTCPPCPAPELLGGPSVFLFPPKPKDTLMISRTPEVTCVVVDVSHEDPEVKFNWYVDGVEVHNAKTKPREEQYNSTYRVVSVLTVLHQDWLNGKEYKCKVSNKALPAPIEKTISKAKGQPREPRVYTLPPCRDELTKNQVSLTCLVKGFYPSDIAVEWESNGQPENNYKTTPPVLVSDGSFTLYSKLTVDKSRWQQGNVFSCSVMHEALHNHYTQKSLSLSPG
heavy: EVQLVESGGGLVKPGGSLRLSCAASGFTFSSYSMNWVRQAPGKGLEWVSSISSSSSYIYYADSVKGRFTISRDNAKNSLYLQMNSLRAEDTAVYYCARGAPIGAAAGWFDPWGQGTLVTVSSASTKGPSVFPLAPSSKSTSGGTAALGCLVKDYFPEPVTVSWNSGALTSGVHTFPAVLQSSGLYSLSSVVTVPSSSLGTQTYICNVNHKPSNTKVDKKVEPKSCDKTHTCPPCPAPELLGGPSVFLFPPKPKDTLMISRTPEVTCVVVDVSHEDPEVKFNWYVDGVEVHNAKTKPREEQYNSTYRVVSVLTVLHQDWLNGKEYKCKVSNKALPAPIEKTISKAKGQPREPQVCTLPPSRDELTENQVSLTCLVKGFYPSDIAVEWESNGQPENNYKTTPPVLDSDGSFFLYSWLTVDKSRWQQGNVFSCSVMHEALHNHYTQKSLSLSPG
light: DIQMTQSPSSVSASVGDRVTITCRASQGISSWLAWYQQKPGKAPKLLIYAASSLQSGVPSRFSGSGSGTDFTLTISSLQPEDFATYYCQQGVSFPRTFGGGTKVEIKRTVAAPSVFIFPPSDEQLKSGTASVVCLLNNFYPREAKVQWKVDNALQSGNSQESVTEQDSKDSTYSLSSTLTLSKADYEKHKVYACEVTHQGLSSPVTKSFNRGEC
notes: also called EGFR-TriNKET-3
[1]
  EC50: 0.33 nM
  Max FOB: 5 fold over background
[2]
  EC50, short-term NK cell-mediated cytotoxicity (DELFIA), NCI-H1975: 0.1 nM
[3]
  EC50, short-term NK cell-mediated cytotoxicity (DELFIA), 786-O: 0.048 nM
  EC50, short-term NK cell-mediated cytotoxicity (DELFIA), BT474: 0.29 nM
  EC50, short-term NK cell-mediated cytotoxicity (DELFIA), Detroit 562: 0.058 nM
  EC50, short-term NK cell-mediated cytotoxicity (DELFIA), FaDu: 0.011 nM
  EC50, short-term NK cell-mediated cytotoxicity (DELFIA), HCT116: 0.054 nM
  EC50, short-term NK cell-mediated cytotoxicity (DELFIA), HT29: 0.019 nM
  EC50, short-term NK cell-mediated cytotoxicity (DELFIA), KYSE-30: 5.3 pM
  EC50, short-term NK cell-mediated cytotoxicity (DELFIA), NCI-H292: 8.8 pM
  EC50, short-term NK cell-mediated cytotoxicity (DELFIA), NCI-H1703: 0.022 nM
  EC50, short-term NK cell-mediated cytotoxicity (DELFIA), NCI-H2172: 0.079 nM
[4]
  EC50, short-term NK cell-mediated cytotoxicity (DELFIA), HCC4006: 0.092 nM
Cynomolgus monkey FcRn
  Kd: 900 nM
[5]
  EC50, NK cell degranulation and cytokine production, cynomolgus monkey PBMCs with 786-O: 0.023 nM
  EC50, NK cell degranulation and cytokine production, cynomolgus monkey PBMCs with NCI-H1975: 0.037 nM
[6]
  EC50, NK cell degranulation and cytokine production, human PBMCs with NCI-H1975: 0.067 nM
[7]
  EC50, NK cell degranulation and cytokine production, human PBMCs with 786-O: 0.089 nM
Human NKG2D on cells
  EC50, CD8+ T-cell lysis of 786-O cells: 0.43 nM
  EC50, CD8+ T-cell lysis of NCI-H1975 cells: 0.17 nM
[8]
  EC50: 3.5 nM
  Max FOB: 330 fold over background
[9]
  EC50: 11 nM
  Max FOB: 1800 fold over background
[10]
  EC50: 1.6 nM
  Max FOB: 490 fold over background
[11]
  Kd: 4.7 nM
  koff: 0.00095 s⁻¹
  kon: 200000 M⁻¹ s⁻¹
[12]
  Kd: 5.9 nM
  koff: 0.001 s⁻¹
  kon: 180000 M⁻¹ s⁻¹
[13]
  Kd: 4.7 nM
  koff: 0.00095 s⁻¹
  kon: 200000 M⁻¹ s⁻¹
[14]
  binding result: no binding
[15]
  Kd: 1000 nM
Recombinant mouse NKG2D
  binding result: no binding
[16]
  Kd: 562 nM
[17]
  Kd: 482 nM
Recombinant rat NKG2D
  binding result: no binding
